Measured values from patent US20050064507.

Columns and labels:
[1] = biological target: T1, MLK3 peptide HVRRRRGTFKRSKLRARD (SEQ ID NO:76) (not fully specified)
T1 chain: HVRRRRGTFKRSKLRARD

[2] = biological target: T2, PRKCA peptide RFARKGSLRQKNV (SEQ ID NO:85) (not fully specified)
T2 chain: RFARKGSLRQKNV

[3] = biological target: T3, SPTBN4 peptide EGGDRRASGRRK (SEQ ID NO:110) (not fully specified)
T3 chain: EGGDRRASGRRK

[4] = biological target: T4, ARHGAP6 peptide DGQKRKKSLRKKLD (SEQ ID NO:92) (not fully specified)
T4 chain: DGQKRKKSLRKKLD

[5] = biological target: T5, PRKCM peptide VHYTSKDTLRKRHYWR (SEQ ID NO:91) (not fully specified)
T5 chain: VHYTSKDTLRKRHYWR

[6] = biological target: T6, PLD1 peptide KYKAFIRIPIPTRRHTFRRQ (SEQ ID NO:161) (not fully specified)
T6 chain: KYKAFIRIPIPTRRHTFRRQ

[7] = biological target: T7, MLK3 peptide QQVDRERPHVRRRRGTFKRS (SEQ ID NO:128) (not fully specified)
T7 chain: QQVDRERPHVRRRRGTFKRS

[8] = biological target: T8, dag kinase zeta peptide RPQNTLKASKKKKRASFKRK (SEQ ID NO:118) (not fully specified)
T8 chain: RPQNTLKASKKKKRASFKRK

[9] = biological target: T9, dag kinase iota peptide NRKKKRTSFKRKA (SEQ ID NO:117) (not fully specified)
T9 chain: NRKKKRTSFKRKA

[10] = biological target: T10, MARCKS peptide KKKRFSFKKSFKLSGFSFKK (SEQ ID NO:111) (not fully specified)
T10 chain: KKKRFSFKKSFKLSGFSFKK

[11] = biological target: T11, LIMK2 peptide KATTKKRTLRKNDRK (SEQ ID NO:108) (not fully specified)
T11 chain: KATTKKRTLRKNDRK

[12] = biological target: T12, ARHGAP6 peptide SAQITIPKDGQKRKKSLRKK (SEQ ID NO:156) (not fully specified)
T12 chain: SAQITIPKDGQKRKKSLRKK

[13] = biological target: T13, gravin peptide KKFFTQGWAGWRKKTSFRKP (SEQ ID NO:154) (not fully specified)
T13 chain: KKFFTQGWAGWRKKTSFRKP

[14] = biological target: T14, NF1 peptide AGSFKRNSIKKIV (SEQ ID NO:102) (not fully specified)
T14 chain: AGSFKRNSIKKIV

[15] = biological target: T15, AF15q14 peptide GFLNEPLSSKSQRRKSLKLK (SEQ ID NO:132) (not fully specified)
T15 chain: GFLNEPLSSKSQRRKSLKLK

[16] = biological target: T16, MCM2 peptide VQRHRSMRKTFARYLSFRRD (SEQ ID NO:129) (not fully specified)
T16 chain: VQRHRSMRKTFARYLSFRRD

[17] = biological target: T17, ankyrin R peptide DLIEGRKGAQIVKRASLKRG (SEQ ID NO:152) (not fully specified)
T17 chain: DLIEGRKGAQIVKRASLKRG

[18] = biological target: T18, ARHGAP4 peptide AGPLRKSSLKKGGRL (SEQ ID NO:98) (not fully specified)
T18 chain: AGPLRKSSLKKGGRL

[19] = biological target: T19, cytohesin-2 peptide VDPFYEMLAARKKRISVKKK (SEQ ID NO:150) (not fully specified)
T19 chain: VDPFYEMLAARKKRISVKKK

[20] = biological target: T20, KCNH2 peptide RQRKRKLSFRRRTDKD (SEQ ID NO:86) (not fully specified)
T20 chain: RQRKRKLSFRRRTDKD

[21] = biological target: T21, p47phox peptide QAQRQIKRGAPPRRSSIRNA (SEQ ID NO:146) (not fully specified)
T21 chain: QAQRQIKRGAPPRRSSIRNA

[22] = biological target: T22, EBNA1BP2 peptide KRPGKKGSNKRPGKR (SEQ ID NO:112) (not fully specified)
T22 chain: KRPGKKGSNKRPGKR

[23] = biological target: T23, beta adducin peptide PSKSPSKKKKKFRTPSFLKK (SEQ ID NO:137) (not fully specified)
T23 chain: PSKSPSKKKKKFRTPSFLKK

[24] = biological target: T24, pkc-zeta peptide GLPAPGEDKSIYRRGSRRWR (SEQ ID NO:167) (not fully specified)
T24 chain: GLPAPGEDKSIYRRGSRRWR

[25] = biological target: T25, PSCD2 peptide AARKKRISVKKKQEQ (SEQ ID NO:93) (not fully specified)
T25 chain: AARKKRISVKKKQEQ

[26] = biological target: T26, GABRB2 peptide QKKSRLRRRASQLKI (SEQ ID NO:84) (not fully specified)
T26 chain: QKKSRLRRRASQLKI

[27] = biological target: T27, PSCDBP peptide LSSMFGTLPRKSRKGSVRKQ (SEQ ID NO:144) (not fully specified)
T27 chain: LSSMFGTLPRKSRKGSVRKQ

[28] = biological target: T28, beta adducin peptide KKKFRTPSFLKKSKK (SEQ ID NO:135) (not fully specified)
T28 chain: KKKFRTPSFLKKSKK

[29] = biological target: T29, SYTL4 peptide RQGKRKTSIKRDTVNPL (SEQ ID NO:87) (not fully specified)
T29 chain: RQGKRKTSIKRDTVNPL

[30] = biological target: T30, MARCKS peptide KKRFSFKKSFKLSGFSFKKN (SEQ ID NO:123) (not fully specified)
T30 chain: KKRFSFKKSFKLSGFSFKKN

[31] = biological target: T31, NIK peptide TEGKMARVAWKGKRRSKARK (SEQ ID NO:164) (not fully specified)
T31 chain: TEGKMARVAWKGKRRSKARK

B1: PKC-epsilon (protein)
chain: MVVFNGLLKIKICEAVSLKPTAWSLRHAVGPRPQTFLLDPYIALNVDDSRIGQTATKQKTNSPAWHDEFVTDVCNGRKIELAVFHDAPIGYDDFVANCTIQFEELLQNGSRHFEDWIDLEPEGRVYVIIDLSGSSGEAPKDNEERVFRERMRPRKRQGAVRRRVHQVNGHKFMATYLRQPTYCSHCRDFIWGVIGKQGYQCQVCTCVVHKRCHELIITKCAGLKKQETPDQVGSQRFSVNMPHKFGIHNYKVPTFCDHCGSLLWGLLRQGLQCKVCKMNVHRRCETNVAPNCGVDARGIAKVLADLGVTPDKITNSGQRRKKLIAGAESPQPASGSSPSEEDRSKSAPTSPCDQEIKELENNIRKALSFDNRGEEHRAASSPDGQLMSPGENGEVRQGQAKRLGLDEFNFIKVLGKGSFGKVMLAELKGKDEVYAVKVLKKDVILQDDDVDCTMTEKRILALARKHPYLTQLYCCFQTKDRLFFVMEYVNGGDLMFQIQRSRKFDEPRSRFYAAEVTSALMFLHQHGVIYRDLKLDNILLDAEGHCKLADFGMCKEGILNGVTTTTFCGTPDYIAPEILQELEYGPSVDWWALGVLMYEMMAGQPPFEADNEDDLFESILHDDVLYPVWLSKEAVSILKAFMTKNPHKRLGCVASQNGEDAIKQHPFFKEIDWVLLEQKKIKPPFKPRIKTKRDVNNFDQDFTREEPVLTLVDEAIVKQINQEEFKGFSYFGEDLMP
in vitro phosphorylation (% of best substrate) [1]: 100
in vitro phosphorylation (% of best substrate) [2]: 86
in vitro phosphorylation (% of best substrate) [3]: 4
in vitro phosphorylation (% of best substrate) [4]: 51
in vitro phosphorylation (% of best substrate) [5]: 49
in vitro phosphorylation, 1 uM peptide (% of best substrate) [6]: 21
in vitro phosphorylation, 1 uM peptide (% of best substrate) [7]: 32
in vitro phosphorylation, 1 uM peptide (% of best substrate) [8]: 89
in vitro phosphorylation, 1 uM peptide (% of best substrate) [9]: 67
in vitro phosphorylation (% of best substrate) [10]: 12
in vitro phosphorylation (% of best substrate) [11]: 8
in vitro phosphorylation, 1 uM peptide (% of best substrate) [12]: 18
in vitro phosphorylation, 1 uM peptide (% of best substrate) [13]: 29
in vitro phosphorylation (% of best substrate) [14]: 14
in vitro phosphorylation, 1 uM peptide (% of best substrate) [15]: 47
in vitro phosphorylation, 1 uM peptide (% of best substrate) [16]: 65
in vitro phosphorylation, 1 uM peptide (% of best substrate) [17]: 25
in vitro phosphorylation (% of best substrate) [18]: 34
in vitro phosphorylation, 1 uM peptide (% of best substrate) [19]: 20
in vitro phosphorylation (% of best substrate) [20]: 63
in vitro phosphorylation, 1 uM peptide (% of best substrate) [21]: 28
in vitro phosphorylation (% of best substrate) [22]: 11
in vitro phosphorylation, 1 uM peptide (% of best substrate) [23]: 32
in vitro phosphorylation, 1 uM peptide (% of best substrate) [24]: 6
in vitro phosphorylation (% of best substrate) [25]: 40
in vitro phosphorylation (% of best substrate) [26]: 52
in vitro phosphorylation, 1 uM peptide (% of best substrate) [27]: 24
in vitro phosphorylation, 1 uM peptide (% of best substrate) [28]: 27
in vitro phosphorylation (% of best substrate) [29]: 31
in vitro phosphorylation, 1 uM peptide (% of best substrate) [30]: 67
in vitro phosphorylation, 1 uM peptide (% of best substrate) [31]: 12
